The target in test [1] is T1, FLAG-GST-fused RelA (UniProt Q04206 1-551).
T1 construct: Immobilized on glutathione magnetic beads on the non-denatured protein array; Order of the parts follows the printed name FLAG-GST; also called FLAG-GST-fused immobilized substance (RelA); not shown: FLAG tag protein; GST protein (glutathione S-transferase tag)
As to the kind of experiment: proximity-biotinylation bead array, streptavidin-HRP luminescence; labeling 26°C 3 h; exposure 3 min; the filing calls the signal on this pair non-specific.

Test [2] has as its target T1, FLAG-GST-fused RelA. Nature of the test: proximity-biotinylation bead array, streptavidin-HRP luminescence; labeling 26°C 1 h; exposure 3 min; the filing calls the signal on this pair non-specific.
Test [3] has as its target T1, FLAG-GST-fused RelA. As to the kind of experiment: proximity-biotinylation bead array, streptavidin-HRP luminescence; labeling 26°C 30 min; exposure 3 min; the filing calls the signal on this pair non-specific.
The target in test [4] is T1, FLAG-GST-fused RelA. As to the kind of experiment: proximity-biotinylation bead array, streptavidin-HRP luminescence; labeling 37°C 24 h; exposure 10 min.
Test [5] deals with T2, FLAG-GST-fused MDM2 (UniProt P23804 1-489).
T2 construct: Immobilized on glutathione magnetic beads on the non-denatured protein array; Order of the parts follows the printed name FLAG-GST; also called FLAG-GST-fused immobilized substance (MDM2); not shown: FLAG tag protein; GST protein (glutathione S-transferase tag)
Nature of the test: proximity-biotinylation bead array, streptavidin-HRP luminescence; labeling 26°C 3 h; exposure 3 min; the filing calls the signal on this pair non-specific.

Test [6] concerns the target T2, FLAG-GST-fused MDM2. Nature of the test: proximity-biotinylation bead array, streptavidin-HRP luminescence; labeling 26°C 1 h; exposure 3 min; the filing calls the signal on this pair non-specific.
For test [7], the target named is T2, FLAG-GST-fused MDM2. Nature of the test: proximity-biotinylation bead array, streptavidin-HRP luminescence; labeling 26°C 30 min; exposure 3 min; the filing calls the signal on this pair non-specific.
Test [8] addresses T2, FLAG-GST-fused MDM2. As to the kind of experiment: proximity-biotinylation bead array, streptavidin-HRP luminescence; labeling 37°C 24 h; exposure 10 min.
A further test addresses T3, MDM2 (Mus musculus, UniProt P23804).
T3 construct: made in house; host or cells: wheat cell-free protein synthesis
Nature of the test: AirID proximity-dependent biotin labeling on non-denatured protein array, TP53 and MDM2 (Example 2). Format: binding. The settings on record: AirID-fused TP53; FLAG-GST-MDM2 on magnetic beads; HRP-labeled streptavidin. The text has this:
(§1) As a substance to be analyzed, template DNA in which TP53 (SEQ ID NO: 4) or Iκβα (SEQ ID NO: 5) was fused to AirID (SEQ ID NO: 3) was synthesized. As an immobilized substance (target protein), template DNA in which MDM2 (SEQ ID NO: 10), RelA (SEQ ID NO: 11), or any one of 10 kinds of proteins (controls) for comparison was fused to a FLAG™ tag protein and a GST protein was synthesized.
(§2) Thus, a non-denatured protein array was produced.

Test [9] has as its target T2, FLAG-GST-fused MDM2. Nature of the test: proximity-biotinylation bead array, streptavidin-HRP luminescence; labeling 26°C 3 h; exposure 10 min.
Test [10] addresses T1, FLAG-GST-fused RelA. Described as above.
Test [11] deals with T2, FLAG-GST-fused MDM2. As to the kind of experiment: proximity-biotinylation bead array, streptavidin-HRP luminescence; labeling 26°C 30 min; exposure 10 min.
For test [12], the target named is T1, FLAG-GST-fused RelA. The test is described as above.
Test [13] deals with T2, FLAG-GST-fused MDM2. Nature of the test: proximity biotinylation by AirID fusion on bead protein array, streptavidin-HRP luminescence image.
Method: The washing buffer was removed, and an HRP-labeled streptavidin solution diluted with the reaction buffer was added and allowed to react with the FLAG™-GST-fused immobilized substance on the magnetic beads. In order to remove free streptavidin, the reaction buffer was removed and then washing was performed a plurality of times with a washing buffer. After the removal of the washing buffer, a chemiluminescence reagent was added and subjected to a reaction. The resultant luminescence was detected with LAS4000 (manufactured by GE Healthcare) to provide measurement images.
The target of test [14] is T2, FLAG-GST-fused MDM2. As to the kind of experiment: proximity-biotinylation bead array, streptavidin-HRP luminescence; labeling 26°C 1 h; exposure 10 min.
For test [15], the target named is T1, FLAG-GST-fused RelA. The description is as above.
The next test has as its target T4, RelA (Homo sapiens, UniProt Q04206).
T4 construct: made in house; host or cells: wheat cell-free expression system
Nature of the test: AirID proximity-dependent biotin labeling on non-denatured protein array, Iκβα and RelA (Example 2). As to conditions: AirID-fused Iκβα; FLAG-GST-RelA on magnetic beads; HRP-labeled streptavidin. Format: binding.
Text: as §1, §2

Test [16] addresses T2, FLAG-GST-fused MDM2. As to the kind of experiment: proximity-biotinylation bead array, streptavidin-HRP luminescence; labeling 26°C; exposure 10 min.

T1 sequence (Q04206 other isoform, or with tags, fused parts or gaps): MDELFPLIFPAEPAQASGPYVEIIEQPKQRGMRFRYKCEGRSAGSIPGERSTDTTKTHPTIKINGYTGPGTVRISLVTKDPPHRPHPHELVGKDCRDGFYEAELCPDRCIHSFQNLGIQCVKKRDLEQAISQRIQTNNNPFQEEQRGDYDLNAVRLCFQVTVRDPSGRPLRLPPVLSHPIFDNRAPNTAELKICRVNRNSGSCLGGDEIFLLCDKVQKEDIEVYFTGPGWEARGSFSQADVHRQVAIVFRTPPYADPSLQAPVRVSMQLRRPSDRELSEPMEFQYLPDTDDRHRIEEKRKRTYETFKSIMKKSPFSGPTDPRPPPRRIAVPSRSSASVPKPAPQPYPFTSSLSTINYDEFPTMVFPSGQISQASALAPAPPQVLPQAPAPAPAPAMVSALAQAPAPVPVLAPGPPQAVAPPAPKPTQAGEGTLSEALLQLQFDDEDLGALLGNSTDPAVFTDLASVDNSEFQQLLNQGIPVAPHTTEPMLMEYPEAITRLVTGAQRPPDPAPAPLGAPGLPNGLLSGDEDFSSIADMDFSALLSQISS
T2 sequence (P23804 whole entry, the tested form may be a part): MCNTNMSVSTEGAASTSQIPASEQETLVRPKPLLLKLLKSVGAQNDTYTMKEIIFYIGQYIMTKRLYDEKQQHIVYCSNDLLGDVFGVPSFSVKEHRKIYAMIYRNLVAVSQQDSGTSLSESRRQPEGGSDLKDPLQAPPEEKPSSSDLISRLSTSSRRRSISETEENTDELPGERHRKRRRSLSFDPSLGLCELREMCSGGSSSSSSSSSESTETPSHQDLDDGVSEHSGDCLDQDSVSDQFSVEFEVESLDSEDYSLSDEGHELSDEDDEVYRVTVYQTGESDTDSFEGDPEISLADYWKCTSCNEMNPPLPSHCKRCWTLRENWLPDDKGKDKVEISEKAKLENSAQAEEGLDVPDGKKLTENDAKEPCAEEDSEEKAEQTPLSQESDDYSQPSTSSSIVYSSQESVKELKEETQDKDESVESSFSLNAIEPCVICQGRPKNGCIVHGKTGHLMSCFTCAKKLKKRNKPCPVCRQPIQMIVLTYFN
T4 sequence (Q04206 1-548 isoform Q04206-4): as the sequence (Q04206 other isoform, or with tags, fused parts or gaps) above
T3 sequence (P23804 whole entry): as the sequence (P23804 whole entry, the tested form may be a part) above

For TurboID-fused TP53, the signal value is > 65000 with FLAG-GST-fused RelA [1], > 65000 with FLAG-GST-fused RelA [2] and 10200 with FLAG-GST-fused RelA [3].

Take BioID-fused TP53: the signal value with FLAG-GST-fused RelA [4] was 1860.

Take TurboID-fused Iκβα: the signal value was > 65000 with FLAG-GST-fused MDM2 [5], > 65000 in the test with FLAG-GST-fused MDM2 [6] and 7030 in the test with FLAG-GST-fused MDM2 [7].

In turn, BioID-fused Iκβα had a signal value with FLAG-GST-fused MDM2 [8] of 4530.

In the case of “TP53: TP53 (SEQ ID NO: 4), fused to AirID as substance to be analyzed in Example 2”, the “luminescence (biotin detection) between TP53 and MDM2” value with MDM2 was “recognized”.

B1: AirID-fused Iκβα (other)
chain: MKDNTVPLTLISILADGEFHSGEQLGEQLGMSRAAINKHIKTLRDWGVDVFRVQGKGYCLPEPIQLLDEEKIRQQLDEGSVTVLPVIDSTNQYLLDRLDELTSGDVCIAEYQQAGRGSRGRKWFSPFGANLYLSMYWRLEQGPAAAMGLSLVIGIVMAETLQKLGADGVRVKWPNDLYLNDRKLAGILVEMTGKTGDAAHIVIGAGINLSMREPETDEVDQSWINLQEAGITIDRNQLAARLIKDLRSALRQFEQQGLAPFLSRWEALDNFINRPVKLIIGDREIHGIARGINEQGALLLEQDGVIKPWIGGEISLRSAMFQAAERPQEWAMEGPRDGLKKERLLDDRHDSGLDSMKDEEYEQMVKELQEIRLEPQEVPRSSEPWKQQLTEDGDSFLHLAIIHEEKALTMEVIRQVKGDLAFLNFQNNLQQTPLHLAVITNQPEIAEALLGAGCDPELRDFRGNTPLHLACEQGCLASVGVLTQSCTTPHLHSILKATNYNGHTCLHLASIHGYLGIVELLVSLGADVNAQEPCNGRTALHLAVDLQNPDLVSLLLKCGADVNRVTYQGYSPYQLTWGRPSTRIQQQLGQLTLENLQMLPESEDEESYDTESEFTEFTEDELPYDDCVFGGQRLTL
notes: Fusion made in a wheat cell-free system; also called AirID-fused substance to be analyzed (Iκβα)
Consider B1, for which the signal value with FLAG-GST-fused MDM2 [9] was determined as 520; with FLAG-GST-fused RelA [10] it was 48000; with FLAG-GST-fused MDM2 [11], 370; with FLAG-GST-fused RelA [12], 7940; in the test with FLAG-GST-fused MDM2 [14], 690; with FLAG-GST-fused RelA [15], 28000. Moreover, in the test with FLAG-GST-fused MDM2 [13], the binding result was “no binding”. In the test with RelA, the “luminescence (biotin detection) between Iκβα and RelA” value is reported as “recognized”.

B2: AirID-S118G mutant-fused Iκβα (other)
fusion protein: MKDNTVPLTLISILADGEFHSGEQLGEQLGMSRAAINKHIKTLRDWGVDVFRVQGKGYCLPEPIQLLDEEKIRQQLDEGSVTVLPVIDSTNQYLLDRLDELTSGDVCIAEYQQAGRGGRGRKWFSPFGANLYLSMYWRLEQGPAAAMGLSLVIGIVMAETLQKLGADGVRVKWPNDLYLNDRKLAGILVEMTGKTGDAAHIVIGAGINLSMREPETDEVDQSWINLQEAGITIDRNQLAARLIKDLRSALRQFEQQGLAPFLSRWEALDNFINRPVKLIIGDREIHGIARGINEQGALLLEQDGVIKPWIGGEISLRSAMFQAAERPQEWAMEGPRDGLKKERLLDDRHDSGLDSMKDEEYEQMVKELQEIRLEPQEVPRSSEPWKQQLTEDGDSFLHLAIIHEEKALTMEVIRQVKGDLAFLNFQNNLQQTPLHLAVITNQPEIAEALLGAGCDPELRDFRGNTPLHLACEQGCLASVGVLTQSCTTPHLHSILKATNYNGHTCLHLASIHGYLGIVELLVSLGADVNAQEPCNGRTALHLAVDLQNPDLVSLLLKCGADVNRVTYQGYSPYQLTWGRPSTRIQQQLGQLTLENLQMLPESEDEESYDTESEFTEFTEDELPYDDCVFGGQRLTL
As to B2, the signal value came to 370 with FLAG-GST-fused MDM2 [9]; 51400 in the test with FLAG-GST-fused RelA [10]; 240 with FLAG-GST-fused MDM2 [11]; 9570 with FLAG-GST-fused RelA [12]; 220 with FLAG-GST-fused MDM2 [14]; 10200 with FLAG-GST-fused RelA [15]. The binding result with FLAG-GST-fused MDM2 [16] was “no binding”.

B3: AVVA-R118S,Q141R mutant-fused Iκβα (other)
fusion protein: MSEQWSRKREILALLSSGHFVSGEELATQLGISRTAVSKHIAALEEYGVDIYSVKGKGYKLANPISLIDESKLKSAINNRCFYFDEIPSTNGFMLKHAEELKSGDICVAEYQSAGRGSRGRTWVSPYGCHLYFSLYWRFPRGMAQAMGLSLVVACSLVKVLKSFGVDGVGVKWPNDIYLNHKKLAGVLIEMSGQADSECHLVIGIGINMAMSEQQGKKIDQPWSDLSSLTSMPDKTELLIALQKQLKQDLELFEREGLKAFQPRWQEADLFYGKQIKLLMGENQVEGICRGIDEQGAVLLETDDGIQAFIGGEISLRAAMFQAAERPQEWAMEGPRDGLKKERLLDDRHDSGLDSMKDEEYEQMVKELQEIRLEPQEVPRSSEPWKQQLTEDGDSFLHLAIIHEEKALTMEVIRQVKGDLAFLNFQNNLQQTPLHLAVITNQPEIAEALLGAGCDPELRDFRGNTPLHLACEQGCLASVGVLTQSCTTPHLHSILKATNYNGHTCLHLASIHGYLGIVELLVSLGADVNAQEPCNGRTALHLAVDLQNPDLVSLLLKCGADVNRVTYQGYSPYQLTWGRPSTRIQQQLGQLTLENLQMLPESEDEESYDTESEFTEFTEDELPYDDCVFGGQRLTL
For B3, the signal value was 230 with FLAG-GST-fused MDM2 [9]; > 65000 with FLAG-GST-fused RelA [10]; 120 with FLAG-GST-fused MDM2 [11]; 10400 with FLAG-GST-fused RelA [12]; 190 in the test with FLAG-GST-fused MDM2 [14]; 37500 in the test with FLAG-GST-fused RelA [15]. Further, the binding result with FLAG-GST-fused MDM2 [16] is listed as “no binding”.

For the origin of these results see patent US20230251254A1, “METHOD FOR EVALUATING INTERACTION BETWEEN IMMOBILIZED SUBSTANCE IMMOBILIZED DIRECTLY OR INDIRECTLY ON SUBSTRATE AND PROXIMITY-DEPENDENT MODIFYING ENZYMELABELED SUBSTANCE TO BE ANALYZED” (CELLFREE SCIENCES CO.,LTD., priority 2020, published 2023).
